Patent US20120149028A1 (LUDWIG MAXIMILIANS UNIVERSITAT M NCHEN, published 2012)

Target: T1, endogenous PCNA (proliferating cell nuclear antigen) in HeLa cells (human (endogenous in HeLa cells), UniProt P12004 1-261)
T1 construct: whole, on cells; Intracellular (nuclear) endogenous protein in living or fixed HeLa cells, not on the surface
Experiment: GFP fusion expressed in HeLa cells, epifluorescence microscopy
Method: First, it was investigated, whether transiently expressed PCNA3p16-GFP colocalizes with RFP-PCNA or HcRedLigase, another S phase marker. To do so, HeLa cells were seeded on coverslips and transiently double transfected with expression vectors coding for RFP-PCNA or HcRed-Ligase and vector coding for PCNA-Chromobody PCNA3p16-GFP. 24 h after transfection cells were fixed in 4% PFA for 15 minutes at room temperature, permeabilized with 0,2% Triton-X-100 in PBS and the DNA was counterstained with DAPI. Slides were mounted in VectaShield and further analyzed by epifluorescence microscopy with appropriate filtersets for DAPI (D360_{—}40X/HQ460_{—}40M), GFP (HQ480_{—}40X/HQ535_{—}50M) and red fluorescent proteins (HQ565_{—}30X/HQ620_{—}60M) and an 63X/1.3 NA Plan Apo oil objective. As expected, RFP-PCNA as well as HcRed-Ligase localized to DNA replication sites in the nucleus of the cells. In both cases a colocalization of RFP-PCNA and HcRed-Ligase with the Chromobody PCNA3p16-GFP was detected (FIG. 3 A). […]
To confirm that PCNA3p16-GFP recognizes endogenous PCNA located at active DNA replication sites, an antibody staining against PCNA and a BrdU pulse-chase experiment were performed. […] The primary anti-PCNA antibody (clone 16D10) (1:400) was detected by a secondary antibody coupled to the fluorescent dye Alexa568. […]

T1 sequence (P12004 whole entry): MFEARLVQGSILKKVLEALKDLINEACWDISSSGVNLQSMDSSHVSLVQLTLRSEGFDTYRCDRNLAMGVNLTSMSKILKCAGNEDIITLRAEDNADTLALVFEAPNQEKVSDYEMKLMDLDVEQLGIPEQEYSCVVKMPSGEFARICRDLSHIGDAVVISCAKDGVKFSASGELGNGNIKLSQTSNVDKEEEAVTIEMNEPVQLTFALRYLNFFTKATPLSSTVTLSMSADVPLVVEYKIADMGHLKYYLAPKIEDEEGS

binding result: binds
B1: variant PCNA-Chromobody of SEQ ID NO 18 fused to GFP (VHH)
VHH: NVQLNESGGGLVQPGGSLRLSCAASGFTFSSYAMSWVRQAPGKGLEWVSEISPSGAVKAYSDSVKGRFTISRDNAKNRLYLQMNSLTPEDTGEYFCTKVQSPRTRIPAPSSQGTQVTVSS
notes: Expressed in HeLa cells as a GFP fusion; not shown: linker and GFP
